Assay results: a protein production outcome set (Wang et al. 2014)

Assay: label from the status in PepcDB records

Row | Sequence | protein production
1 | MKWPWWPVCVPLSKRLTLPLPSTANPVVQPSRLALACANRLFEAADNRERFLQALMTPPAYPATVLWCGEPAAALPFAALPPLPWQPPWVSRFVAGSPTGQHPLHAAGAYYCLDSSSVFAAVPLLTLPQEPSLVIDVCAAPGGKSLFAWRSLHPRYLICNETIGKRVGKLIGNLKRCRVHPVGVTSWDSEVLAAEFQGTADVVIVDAPCSGQSLLAKGQKAEGCFHPLTIRHNQRRQKRILAAATTLVRPGGWLLYSTCTFSQDENEDVAAWLMAKFPHLLPQPVPALAAYQSHLAAFPCYRLWPHQGEGAGAFTILWQHQGKGESNPLPDLGNRRAFGDRWRWQSSSQPA | failed
2 | MKEKVVIITGGSSGMGKGMATRFAKEGARVVITGRTKEKLEEAKLEIEQFPGQILTVQMDVRNTDDIQKMIEQIDEKFGRIDILINNAAGNFICPAEDLSVNGWNSVINIVLNGTFYCSQAIGKYWIEKGIKGNIINMVATYAWDAGPGVIHSAAAKAGVLAMTKTLAVEWGRKYGIRVNAIAPGPIERTGGADKLWISEEMAKRTIQSVPLGRLGTPEEIAGLAYYLCSDEAAYINGTCMTMDGGQHLHQYPF | not failed
3 | SKALLFVIIGSVLVMLLLVGVIIMLLMGNKEESKENASKNTQEVQANPMANKNQEAKEGSNIQQYLVLGPLYAIDAPFAVNLVSQNGRRYLKASISLELSNEKLLNEVKVKDTAIKDTIIEILSSKSVEEVVTNKGKNKLKDEIKSHLNSFLIDGFIKNVFFTDFIIQ | failed
4 | MSLAEFRAQYLVRFWSPIPALLALGVASAYYFAITGTFWAVTGEFTRWGGHIAALLGFSPQQWSYFQLIGLNGSPLERIDGVMIIGMFAGALCAALWAGNVQLRWPTSRRRLAQGLIGGIIAGFGARLAMGCNLAAFFTGIPMFSLHAWAFMLTTVIGAWIGVKLCLLPFLRTPLRLDTAPSSLFADTASLARRARLQNRLGLLIAVLVLGFAAWRFETSLVLGLAVLFGVFFGAVIERGQICFTSAARDLWTTGRTRIAYGILLGMVVACLGTFGAIALGATPKIFWMGPNAALGGLLFGIGIVLAGGCETGWMYRAMEGQVHFWIVGIGNVIGGTLVAIFWDELGGTLALPYPKINLLEYLGAGTGLLLSLAGLMLAMLLVYLNARRFAVREGLAR | failed
5 | MADIINNIVGGRYYILELIGRGGSAIVYKARDIHNGGIYALKKYITSDPANRKRLLEGMERELEVLKNCTHPVLPKIFDLIKIEDAFFLVMEYIDGIDLKKYVDEYGTLSTKMLIKVMEQVCSGFYYLHSLSPAIVYRDLKPANIILCKDGRIKLIDFGIAKRYRTDIDVDKLALGSKGFAAPEQFGDSKGKGLYNTDIRADIYGIGTTMYYLKTAKTYNSVPGSKSLYSFKDYFKTSHKLRKIIKKCTKNNPDLRYQSCIEILCSIKTLHIIGK | failed
6 | MTIPYKEQRLPIEKVFRDPVHNYIHVQHQVILDLINSAEVQRLRRIKQLGTSSFTFHGAEHSRFSHSLGVYEITRRICEIFQRNYSVERLGENGWNDDERLITLCAALLHDVGHGPYSHTFEHIFDTNHEAITVQIITSPETEVYQILNRVSADFPEKVASVITKQYPNPQVVQMISSQIDADRMDYLLRDAYFTGTEYGTFDLTRILRVIRPYKGGIAFAMNGMHAVEDYIVSRYQMYVQVYFHPVSRGMEVILDHLLHRAKELFENPEFDYDLQASLLVPFFKGDFTLQEYLKLDDGVLSTYFTQWMDVPDSILGDLAKRFLMRKPLKSATFTNEKESAATIAYLRELIEKVGFNPKYYTAINSSYDLPYDFYRPNKDRHRTQIELMQKDGSLVELATVSPLVAALAGQSQGDERFYFPKEMLDQGNKKHYDLFDETYREFSSYIHNGALVLKK | not failed
7 | DPREVAGGYVEKLCARYGLADVRVVQSPAMGRGLTGELGNAGAALLEEVVKDGMTVGVSWGDTMLAVSEHLRTLPLVDVKVVQLKGGHSHTARNTNDMVTLTRFSRALNAEMMMLPLPVILDSKEAKELVVKDRHIASMLNLGAHCDVAVFTVGAVKSESLLLNLGYLSPSEQARLMEHAVGDVCSRFYDAQGEVADPDIDARTVGISLADLKKRPVRVLVAGGLEKAPAIEAALRTGVATHVVIDHATAQRVVEMA | failed
8 | MHALIVVAHHHPRSLTHALAARIAEGVVRAGHSAETADLAAEGFEPRFGLADHAVHRGQASPPADVLAEQARIDRADTLVLVYPIYWWSMPALLKGWIDRVFSNGWAFDYSIGGDLRKKLQRLRVVLVGVGGADAGTFERHGYAGAMRTQIDHGIFDYCGARVVRSELLLESESADPIRHLDQALHIGSQLFAARGAQGAAQAQPLEA | failed
9 | MSFKEEQVIKHHQDLANKSVSTFLLLGLDNSGKRKLSTSRTDGMMVVIVNHKTKTITLCSLLRDTFTKIYSQQYHGYQRIETAYTYGGDAAAVATVEHFLKLPIDYYVTLNWDGFIQAINDIGPLSVRVDRAFVGQNYWGHAVHFKAGLQEMNGARALAYARERHVDNDQYRGFRQQAVLYALLKRLNQGALVAKGSQIMGDVKGQVRTNMSEGDMLSLIKYRTVLKHYRVKRVTFQWRTFDTAGRSMVEVYPDSRQHTIAELQAAAGRRAPLEHHHHHH | failed
10 | MADSENMYILSEDEDVCPTCLEEYTSENPKIVTKCSHHFHLSCIYEWMERSENCPVCGKVMEFNETP | failed
11 | ELQRRKLLQENILNSIPLPIHIKDVEDDFRYVFCNEESMRMFGTHEGETVCSVLDSEQAERMQKTDLEVFTTGKPYFGVERIILKDGRSYDTIVRKNIIYDGTKRLLLNIRWD | failed
12 | MAPDLSGTWYVLEGDPGEHLVVEALGERLSGIWTSRELAEAFLAHHPHLGMRVSALESRALKEAYLRALGMLQVEAVMVDYRPGTHRAQVARVKDLLEEVRRA | not failed
13 | MQPISILFLGIDDNDGRRKKGQDAEHSRSDAMILTTFNQSKHQIRMLSIPRDTISYIPKVGYYDKITHAHAYGGPIAAMDSVEATMNVPVDYYVRVNMKAFVEAVNELGGIYYDVPYDLNEPNTDDTGKIKIKKGYQKLNGDEALAVARTRHHDSDLKRGQRQMELIKILFQKAQEVDSIDKLDNVIQIVGKNAKHNLTNSEIKALAKMYLTNDVEIKTAQLKGKDDMLNGIYYYHPSVESIQKYANLLRKDLELSPINDKNDFLDQRVINHYGSLIPLTPLDSSLLRLEHHHHHH | not failed
14 | MSCFYLDLLKIKDPSFMKRLDIQELEALAADIRAFLITSTSKSGGHIGPNLGVVELTIALHYSFNSPKDKFIWDVGHQSYVHKILTGRANQFGTLREHGGLDGFPKRKESIHDVFETGHSSTSLSAAAGMVIARDIKKEDFYVIPIIGDGALTGGMALEALNHIGDMGKDMIVILNDNDMSIAPNVGAIHNILGKLRTSDTSKQTKTNVDGAFFEELGFMYLGPIDGHDIEEVITNLELAKRAKGPVLLHIVTKKGKGYQPAELDSRGTWHGTGPYKVETGSFIKPAKRAASWSSVISNELIRLAEMDERIVAITPAMPVGSKLEKFAKAFPERFFDVGIAEQHATTMAAGLATQGMKPFLAIYSTFLQRAYDQLVHDVCRQKLNVVIGIDRAGLVGADGETHQGIFDISFLNSIPNMTISMPKDEVEARQLMDTAFSYNDGPFAIRYPRGEAPGVQVVESNTLIPIGQWETIIQPLDAVILTFGPTIELALKAAEQLEIEGYRVGVINARYIKPLDEALLHKILKQKIPILTVEESLLKGGFGASVLEFIEANNYRDVIMHRIGLPDEFISHGSVSIILESFGISTTGLVLKIKEMLAQSGKLRAKRL | failed
15 | MVQHHNLYELSPMDTGWTICVMVLRINKKFLNPNAFELRFVLDDEWDTQIEATIRPRFSPFYFDRIEKNQWKTISTFLVRPNCEPIRTTPHEFRILFMDHTIITSSTS | failed
16 | MKDGMKQQKLVEKMTIEEKAAILSGKTVWQTREIDRLSIPSIFLSDGPHGIRKQAGTGDHLGLNASLNATCFPTAATIANSWNQNLGEEIGQALGEEAASMDVNILLGPGLNIKRSPLCGRNFEYFSEDPYLSGKMAASYIRGIQSKGVYACPKHLAVNSQELRRMAMDAVVDERTLREIYLTGFEIAVKEGHAKAIMSSYNQINGIYANEDKHLLTDILRKDWGFDGIVVTDWGGSNDHVKGVAAGSNLEMPSCGYDSAREVIAAVQNGKLKEADLDERVGELVDAVMELTSGKKLSDKNFDRNEHHQLARKAAAESMILLKNEKQILPLDTKKSIAVIGDFAFSPRYQGAGSSMVNPTKVEDMSSILQQYDLNILGMTRGYHRNGDVDENDRKFALNLSMNADIVIFCFGLDEISESEGLDRTHMRIPQDQIDLLQDISKVNENVIGILSAGSAIEMPWHTCCKAILHGYLNGQAGASATLDILTGKVNPSGRLAETYPISYEQTPAYRYYPSNEKTSEYRESVYVGYRYYDTSKVRVQYPFGFGLSYTEFTYSDLIIEEDGIKVSVTNTGDRDGAEVVQMYVGLPNAIVFRPEKELKGFAKVYLKAGESRQIRIPFDDKTFRYWNIKTGQWEIETGTYQIMVGASVADIRLTGMTERTGNSKGYPYNPAKMPYYYTGIVQKISDEEFRELLGHEIPNRRWSGNLEINDAICQMYYAKSRLARLIYRCLTKMKKKSEAQGKPDLNILFIYNMPFRGIAKMTGGAVSMEMVYGIVDAVNGHFMLGVKKIIGGYFRNRRNNKKYEKLLKGAGGKCR | failed
17 | MTIQSEQALEQGLIKTLVSMNYQKIEIADENALIVNFRNQLNIHNNIELTDDEFNRIMIHLDSGSIFVKAEKLRNRFPLTRDDESVKWIEFLNTQEWCKNEFQVSNQITDEGRRKCRYDVTILVNGLPLVQVELKKRGVELKQAYSQVQRYHKTAFKGLFNYIQIFVISNGVNTRYFANNPNQGYKFTFPWADFKNNHIDRLDLFAAMFFEQCTLGKMLAKYVVLHQSDKCLMILRPYQFYAVEALLDKVANSVKNGYIWHTTGSGKTLTSFKAAQLIAEMSDIDKVLFVVDRHDLDTQTKKEYDAFAPGAVDSTDNTKELVKALQGKKKLMITTIQKLNNAVQKDRYSKGLQGVKDKNIVMIFDECHRSQFGEMHSNITGFFSKIRYFGFTGTPIFADNANNGCTTKDIFGERLHEYLIKDAIADENVLGFLVEYHGKWKRKSENDKQVKSIDTAEVLLKDERIASITDFILSNYNSSTYERDFNAMLAVGGVKMLIKYYDMFKSRNHDLKIATIFTYTQNEESEDEFTGLGQGFVSVQNTRDILESYIKDYNETFGTEFDTDHFGLYYDDINKRMKNRQIDLLIVSDMFLTGFDAKKLNTLYVDKNLNYHGLLQAFSRTNRVLNEKKKFGKITCFRDLKQQTDDAIKLYSNNKSSEVVLMKPYEKLVERFNEMAAEFLSYFPTVKSVGNLESELDKRRFVILFRAMLRLRNEVKGYNEFDAEDLTIEEQRFADYQSKYLDMSNEFAITSEKEDAESILQDIDFELELVHRDIINVMYILALLQDLKPESSSYPKDRKAVLDTMDSNPELRSKIALIDNFIKLHIDGRQSNDLPADMESDLDKYIATQKAIAIEQVATEEGIDSTLLHEYISEYEYLGKPKNEIIKRAIDPLKLSFMDAQSKKKSLIDKMKDIIKLFSWN | failed
18 | MSFKGEITHLVPNELYAFKVVEGPFHYTGTYRFKPHPEGTWIEWVFEAEPGSFFGVLPPALLKKMVLAQFKKDVDNLQALAQKGEAYESVGNENKPTLETNKPPHKTQQMMERYARWILSHRRIVLEHHHHHH | failed
19 | MDSLTSLTSFVRTAETLSFVQAARLLGISASAVGKNVARLEHKLGVRLFNRSTRNVSLTAEGAAFLTRCQSILEQIQEAESELTSSLSQPTGKLRISLPVIGYRLLLPALTAFSRLYPQVELDLDFSDRLVNLIDEGVDVAIRSGELADSRLIARKLGGFRFVLCASPAYLAEYGAPDSPAELAAHKCIFFRFPATGLIQPWELRGMRLTGDFRSAAVMTVNNIEAAIRLSAAGMGIAYVPDFVVREAMDEGQLQEVLPGCCIKDGHFSVLWPASRYLSPRIRCFIDFMAAAEIPLSPASAPPPLVSNNLR | failed
